Laboratory results taken from IntAct's records for PubMed 22575644.

B1: Serine/threonine-protein kinase STK11 (Homo sapiens), Q15831 (parent)
chain: MEVVDPQQLGMFTEGELMSVGMDTFIHRIDSTEVIYQPRRKRAKLIGKYLMGDLLGEGSYGKVKEVLDSETLCRRAVKILKKKKLRRIPNGEANVKKEIQLLRRLRHKNVIQLVDVLYNEEKQKMYMVMEYCVCGMQEMLDSVPEKRFPVCQAHGYFCQLIDGLEYLHSQGIVHKDIKPGNLLLTTGGTLKISDLGVAEALHPFAADDTCRTSQGSPAFQPPEIANGLDTFSGFKVDIWSAGVTLYNITTGLYPFEGDNIYKLFENIGKGSYAIPGDCGPPLSDLLKGMLEYEPAKRFSIRQIRQHSWFRKKHPPAEAPVPIPPSPDTKDRWRSMTVVPYLEDLHGADEDEDLFDIEDDIIYTQDFTVPGQVPEEEASHNGQRRGLPKAVCMNGTEAAQLSTKSRAEGRAPNPARKACSASSKIRRLSACKQQ
partner: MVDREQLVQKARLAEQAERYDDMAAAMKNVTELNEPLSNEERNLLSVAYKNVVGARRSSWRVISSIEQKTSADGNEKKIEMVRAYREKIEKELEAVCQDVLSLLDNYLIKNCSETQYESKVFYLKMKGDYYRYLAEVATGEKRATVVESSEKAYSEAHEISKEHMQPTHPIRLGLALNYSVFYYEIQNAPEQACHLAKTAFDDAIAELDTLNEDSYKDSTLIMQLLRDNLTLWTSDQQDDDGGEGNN
B2: Serine/threonine-protein kinase STK11 (Homo sapiens), Q15831 (parent)
chain: B1 chain
partner: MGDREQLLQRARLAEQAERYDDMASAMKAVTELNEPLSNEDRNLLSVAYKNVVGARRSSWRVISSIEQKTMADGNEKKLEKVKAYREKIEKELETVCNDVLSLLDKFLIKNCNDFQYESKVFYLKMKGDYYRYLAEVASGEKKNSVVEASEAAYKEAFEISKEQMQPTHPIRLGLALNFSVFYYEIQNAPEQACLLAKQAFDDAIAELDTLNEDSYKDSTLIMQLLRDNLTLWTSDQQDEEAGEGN
B3: 14-3-3 protein zeta/delta (Homo sapiens), P63104 (parent)
chain: MDKNELVQKAKLAEQAERYDDMAACMKSVTEQGAELSNEERNLLSVAYKNVVGARRSSWRVVSSIEQKTEGAEKKQQMAREYREKIETELRDICNDVLSLLEKFLIPNASQAESKVFYLKMKGDYYRYLAEVAAGDDKKGIVDQSQQAYQEAFEISKKEMQPTHPIRLGLALNFSVFYYEILNSPEKACSLAKTAFDEAIAELDTLSEESYKDSTLIMQLLRDNLTLWTSDTQGDEAEAGEGGEN
partner: B1 chain
B4: Serine/threonine-protein kinase STK11 (Homo sapiens), Q15831 (parent)
chain: B1 chain

Variants of: B1
Conditions: with 1433g_human YWHAG

effect of a mutation on the interaction | Variant
disrupting interaction | MEVVDPQQLGMFTEGELMSVGMDTFIHRIDSTEVIYQPRRKRAKLIGKYLMGDLLGEGSYGKVKEVLDSETLCRRAVKILKKKKLRRIPNGEANVKKEIQLLRRLRHKNVIQLVDVLYNEEKQKMYMVMEYCVCGMQEMLDSVPEKRFPVCQAHGYFCQLIDGLEYLHSQGIVHKDIKPGNLLLTTGGTLKISDLGVAEALHPFAADDTCRTSQGSPAFQPPEIANGLDTFSGFKVDIWSAGVTLYNITTGLYPFEGDNIYKLFENIGKGSYAIPGDCGPPLSDLLKGMLEYEPAKRFSIRQIRQHSWFRKKHPPAEAPVPIPPSPDTKDRWRSMAVVPYLEDLHGADEDEDLFDIEDDIIYTQDFTVPGQVPEEEASHNGQRRGLPKAVCMNGTEAAQLSTKSRAEGRAPNPARKACSASSKIRRLSACKQQ [T336A]

Variants of: B2
Conditions: with 1433f_human YWHAH

effect of a mutation on the interaction | Variant
disrupting interaction | MEVVDPQQLGMFTEGELMSVGMDTFIHRIDSTEVIYQPRRKRAKLIGKYLMGDLLGEGSYGKVKEVLDSETLCRRAVKILKKKKLRRIPNGEANVKKEIQLLRRLRHKNVIQLVDVLYNEEKQKMYMVMEYCVCGMQEMLDSVPEKRFPVCQAHGYFCQLIDGLEYLHSQGIVHKDIKPGNLLLTTGGTLKISDLGVAEALHPFAADDTCRTSQGSPAFQPPEIANGLDTFSGFKVDIWSAGVTLYNITTGLYPFEGDNIYKLFENIGKGSYAIPGDCGPPLSDLLKGMLEYEPAKRFSIRQIRQHSWFRKKHPPAEAPVPIPPSPDTKDRWRSMAVVPYLEDLHGADEDEDLFDIEDDIIYTQDFTVPGQVPEEEASHNGQRRGLPKAVCMNGTEAAQLSTKSRAEGRAPNPARKACSASSKIRRLSACKQQ [T336A]

Variants of: B3
Conditions: with stk11_human STK11, Q15831

effect of a mutation on the interaction | Variant
disrupting interaction | MDKNELVQKAKLAEQAERYDDMAACMKSVTEQGAELSNEERNLLSVAYENVVGARRSSWRVVSSIEQKTEGAEKKQQMAREYREKIETELRDICNDVLSLLEKFLIPNASQAESKVFYLKMKGDYYRYLAEVAAGDDKKGIVDQSQQAYQEAFEISKKEMQPTHPIRLGLALNFSVFYYEILNSPEKACSLAKTAFDEAIAELDTLSEESYKDSTLIMQLLRDNLTLWTSDTQGDEAEAGEGGEN [K49E]

Variants of: B4
Conditions: with 1433z_human YWHAZ

effect of a mutation on the interaction | Variant
disrupting interaction | MEVVDPQQLGMFTEGELMSVGMDTFIHRIDSTEVIYQPRRKRAKLIGKYLMGDLLGEGSYGKVKEVLDSETLCRRAVKILKKKKLRRIPNGEANVKKEIQLLRRLRHKNVIQLVDVLYNEEKQKMYMVMEYCVCGMQEMLDSVPEKRFPVCQAHGYFCQLIDGLEYLHSQGIVHKDIKPGNLLLTTGGTLKISDLGVAEALHPFAADDTCRTSQGSPAFQPPEIANGLDTFSGFKVDIWSAGVTLYNITTGLYPFEGDNIYKLFENIGKGSYAIPGDCGPPLSDLLKGMLEYEPAKRFSIRQIRQHSWFRKKHPPAEAPVPIPPSPDTKDRWRSMAVVPYLEDLHGADEDEDLFDIEDDIIYTQDFTVPGQVPEEEASHNGQRRGLPKAVCMNGTEAAQLSTKSRAEGRAPNPARKACSASSKIRRLSACKQQ [T336A]
